From the RNAGym collection of RNA variant scans (doi:10.7554/elife.90254)

B1: LINE1-full (parent)
chain: UACGUAGGUGGUUUUCCCCUGAUAGUGCUAAGGGGGCCUGGAAGUUUGGACUGGGCAGAGCUCAACACAGCGUGGCAAAGUGGCUGUGGCUAGACUGCCUCUCUGGAUUCCUCGUCACUCAGCAGGGCAUCUCUGAGAGAAAUGCC

Variants of: B1
Assay: self-cleavage, relative activity (ratio to wild type); higher = more cleavage; in vitro, sequencing; the parent is a self-cleaving ribozyme

Variant	self-cleavage
UAUGUAGGUGGUUUUCCCCCGAUAGUGCUAAGGGGGCCUGGAAGUUUGGACUGGGCAGAGCUCAACACAGCGUGGCAAAGUGGCUGUGGCUAGACUGCCUCUCUGGAUUCCUCGUCACUCAGCAGGGCAUCUCUGAGAGAAAUGCC [C3U U20C]	0.44
UACAUAGGUGGUUUUCCCCUGAUAGUGCUAAGGGGGCCUGGAAGUUUGGACUGGGCAGAGCUCAACACAGCGUGGCAAAGUGGCUGUGGCUAGACUGCCUCUCUGGAUUCCUCGUCACUCAGCAGGGCAUCUCUGAGAGAGAUGCC [G4A A141G]	0.89
UAUGUAGGUGGUUUUCCCCUGAUAGUGCAAAGGGGGCCUGGAAGUUUGGACUGGGCAGAGCUCAACACAGCGUGGCAAAGUGGCUGUGGCUAGACUGCCUCUCUGGAUUCCUCGUCACUCAGCAGGGCAUCUCUGAGAGAAAUGCC [C3U U29A]	1.07
UAUGUAGGUGGUUUUCCCCUGAUAGUGCUAAGGGGGCCUGGAAGUUUGGACGGGGCAGAGCUCAACACAGCGUGGCAAAGUGGCUGUGGCUAGACUGCCUCUCUGGAUUCCUCGUCACUCAGCAGGGCAUCUCUGAGAGAAAUGCC [C3U U52G]	1.17
UAUGUAGGUGGUUUUCCCCUGAUAGUGCUAAGGGGGCCUGGAAGUUUGGACUGGGCAGAGCUCAACACAGCGUGGCAAAGUGGCUGUGGCUAGACUGCCACUCUGGAUUCCUCGUCACUCAGCAGGGCAUCUCUGAGAGAAAUGCC [C3U U100A]	0.68
UACAUAGGUGGUUUUCCCCUGAUAGUGCUAAGGGGGCCUGGAAGUUUGGACUGGGCAGAGCUCAACACAGCGUGGCAAAGUGGCUGUGGCUAGACUGCCUCUCUGGAUUCCUCGUCACUCAGCAGGGCAUCUCUGGGAGAAAUGCC [G4A A136G]	0.86
UACAUAGGUGGUUUUCCCCUGAUGGUGCUAAGGGGGCCUGGAAGUUUGGACUGGGCAGAGCUCAACACAGCGUGGCAAAGUGGCUGUGGCUAGACUGCCUCUCUGGAUUCCUCGUCACUCAGCAGGGCAUCUCUGAGAGAAAUGCC [G4A A24G]	0.75
UAUGUAGGUGGUUUUCCCCUGAUAGUGCUAAGGGGGCCUGGAAGUUUGGACUGGGCAGAGCUCAACACAGCGUGGCAAAGUGGCAGUGGCUAGACUGCCUCUCUGGAUUCCUCGUCACUCAGCAGGGCAUCUCUGAGAGAAAUGCC [C3U U85A]	0.28
UACAUAGGUGGUUUUCCCCUGAUAGUGCUAAGGGGGCCUGGAGGUUUGGACUGGGCAGAGCUCAACACAGCGUGGCAAAGUGGCUGUGGCUAGACUGCCUCUCUGGAUUCCUCGUCACUCAGCAGGGCAUCUCUGAGAGAAAUGCC [G4A A43G]	0.67
UAUGUAGGUGGUUUUCCCCUGAUAGUGCUAAGGGGGCCUGGAAGUUUGGACUGGGCAGAGCUCAACACAGCGUGGCAAAGUGGCUGUGGCUAGACUGCCUCUCUGGAUUCCUCGCCACUCAGCAGGGCAUCUCUGAGAGAAAUGCC [C3U U115C]	1.03
UAUGUAGGUGGUUUUCCCCUGAUAGUGCUAAGGGGGCCUGGAAGUUUGGACUGGGCAGAGCUCAACACAGCGUGGCAAAGUGGCUGUGGCUAGACUGCCUCUCUGGAUUCCUCGACACUCAGCAGGGCAUCUCUGAGAGAAAUGCC [C3U U115A]	0.72
UAUGUAGGUGGUUUUCCCCUGAUAGUGCUAAGGGGGCCUGGAAGUUAGGACUGGGCAGAGCUCAACACAGCGUGGCAAAGUGGCUGUGGCUAGACUGCCUCUCUGGAUUCCUCGUCACUCAGCAGGGCAUCUCUGAGAGAAAUGCC [C3U U47A]	0.67
UACAUAGGUGGUUUUCCCCUGAUAGUGCUAAGGGGGCCUGGAAGUUUGGACUGGGCAGAGCUCAACACAGCGUGGCAAAGUGGCUGUGGCUAGACUGCCUCUCUGGAUUCCUCGUCACUCAGCUGGGCAUCUCUGAGAGAAAUGCC [G4A A124U]	0.53
UACAUAGGUGGUUUUCCCCUGAUAGUGCUAAGGGGGCCUGGAAGUUUGGACUGGGCAGAGCUCAACACAGCGUGGCAAAGUGGCUGUGGCUAGACUGCCUCUCUGGUUUCCUCGUCACUCAGCAGGGCAUCUCUGAGAGAAAUGCC [G4A A107U]	0.2
UACAUAGGUGGUUUUCCCCUGAUAGUGCUAAGGGGGCCUGGAAGUUUGGACUGGGCAGAGCUCAACACAGCGUGGCAAGGUGGCUGUGGCUAGACUGCCUCUCUGGAUUCCUCGUCACUCAGCAGGGCAUCUCUGAGAGAAAUGCC [G4A A79G]	1.3
UACAUAGGUGGUUUUCCCCUGAUAGUGCUAAGGGGGCCUGGAAGUUUGGACUGGGCAGAGCUCAACACAGCGUGGCAAUGUGGCUGUGGCUAGACUGCCUCUCUGGAUUCCUCGUCACUCAGCAGGGCAUCUCUGAGAGAAAUGCC [G4A A79U]	0.64
UAUGUAGGUGGUUUUCCCCUGAUAGUGCUAAGGGGGCCUGGAAGUUUGGACUGGGCAGAGCUCAACACAGCGUGGCAAAGUGGCUGUGGCUAGACUGCCUCUCUGGACUCCUCGUCACUCAGCAGGGCAUCUCUGAGAGAAAUGCC [C3U U108C]	1.26
UACAUAGGUGGUUUUCCCCUGAUAGUGCUAAGGGGGCCUGGAAGUUUGGACUGGGCAGAGCUCAACACAGCGUGGCAAAGUGGCUGUGGCUAGACUGCCUCUCUGGAUUCCUCGUCACUCAGCAGGGCAUCUCUGAGAGCAAUGCC [G4A A140C]	0.27
UACAUAGGUGGUUUUCCCCUGAUAGUGCUAAGGGGGCCUGGAAGUUUGGACUGGGCAGAGCUCAACACAGCGUGGCAAAGUGGCUGUGGCUAGACUGCCUCUCUGGAUUCCUCGUCACUCAGCAGGGCAUCUCUGAGAGGAAUGCC [G4A A140G]	0.76
UAUGUAGGCGGUUUUCCCCUGAUAGUGCUAAGGGGGCCUGGAAGUUUGGACUGGGCAGAGCUCAACACAGCGUGGCAAAGUGGCUGUGGCUAGACUGCCUCUCUGGAUUCCUCGUCACUCAGCAGGGCAUCUCUGAGAGAAAUGCC [C3U U9C]	1.53

Variant	self-cleavage
UAUGUAGGUGGUUUUCCCCUGAUAGUGCUAAGGGGGCCUGGAAGUUUGGACUGGGCAGAGCUCAACACAGCGUGGCAAAGUGGCUGGGGCUAGACUGCCUCUCUGGAUUCCUCGUCACUCAGCAGGGCAUCUCUGAGAGAAAUGCC [C3U U87G]	0.32
UAUGUAGGUGGUUUUCCCCUGAUAGUGCUAAGGGGGCCUGGAAGUUUGGACUGGGCAGAGCUCAACACAGCGUGGCAAAGUGGCUGUGGCUAGACUGCCUCUCUGGAUUCCUCGUCACCCAGCAGGGCAUCUCUGAGAGAAAUGCC [C3U U119C]	1.14
UAUGUAGGUGGUUUUCCCCUGAUAGUGCUAAGGGGGCCUGGAAGUUUGGACUGGGCAGAGCCCAACACAGCGUGGCAAAGUGGCUGUGGCUAGACUGCCUCUCUGGAUUCCUCGUCACUCAGCAGGGCAUCUCUGAGAGAAAUGCC [C3U U62C]	0.15
UAUGUAGGUGGUUUUCCCCUGAUAGUGCUAAGGGGGCCUGGAAGUCUGGACUGGGCAGAGCUCAACACAGCGUGGCAAAGUGGCUGUGGCUAGACUGCCUCUCUGGAUUCCUCGUCACUCAGCAGGGCAUCUCUGAGAGAAAUGCC [C3U U46C]	0.92
UAUGUAGGUGGUUUUCCCCUGAUAGUGCUAAGGGGGCCUGGAAGUUUGGACUGGGCAGAGCUCAACACAGCGUGGCAAAGUGGCUGUGGCUAGACUGCCUCUCUGGAUUCCUCGUCACUCAGCAGGGCAUCUCUGAGAGAAAAGCC [C3U U143A]	0.41
UAUGUAGGUGGUUUUCCCCUGAUAGUGCUAAGGGGGCCUGGAAGUUUGGACUGGGCAGAGCUCAACACAGCGUGGCAAAGUGGCUGUGGCUAGACUGCCUCUCUGGAUUCCUCGUCACUCAGCAGGGCAUCUCUGAGAGAAAGGCC [C3U U143G]	0
UAUGUAGGUGGUUUUCCCCUGAUAGUGCUAAGGGGGCCUGGAAGUUUGGACUGGGCAGAGCUCAACACAGCGUGGCAAAGUGGCUGUGGCUAAACUGCCUCUCUGGAUUCCUCGUCACUCAGCAGGGCAUCUCUGAGAGAAAUGCC [C3U G93A]	0
UAUGCAGGUGGUUUUCCCCUGAUAGUGCUAAGGGGGCCUGGAAGUUUGGACUGGGCAGAGCUCAACACAGCGUGGCAAAGUGGCUGUGGCUAGACUGCCUCUCUGGAUUCCUCGUCACUCAGCAGGGCAUCUCUGAGAGAAAUGCC [C3U U5C]	1.16
UAUGUAGGUGGUUCUCCCCUGAUAGUGCUAAGGGGGCCUGGAAGUUUGGACUGGGCAGAGCUCAACACAGCGUGGCAAAGUGGCUGUGGCUAGACUGCCUCUCUGGAUUCCUCGUCACUCAGCAGGGCAUCUCUGAGAGAAAUGCC [C3U U14C]	0.81
UAUGUAGGUGGUUUUCCCCUGAUAGUGCUAAGGGGGCCUGGAAGUUUGGACUGGGCAGAGCUCAACACAGCGUGGCAAAGUGGCUGUGGCUAGACUGCCUCUCUGGAUUCCUCGUCACUCAGCAGGGCAUCUCCGAGAGAAAUGCC [C3U U134C]	1.05
UACAUAGGUGGUUUUCCCCUGAUAGUGCUAAGGGGGCCUGGAAGUUUGGACUGGGCAGAGCUCAACACAGCGUGGCAAAGUGGCUGUGGCUAGACUGACUCUCUGGAUUCCUCGUCACUCAGCAGGGCAUCUCUGAGAGAAAUGCC [G4A C98A]	0.19
UACAUAGGUGGUUUUCCCCUGAUAGUGCUAAGGGGGCCUGGAAGUUUGGACUGGGCAGAGCUCAACACAGCGUGGCAAAGUGGCUGUGGCUAGACUGCCUCUCUGGAUUCCUCGUCACUCCGCAGGGCAUCUCUGAGAGAAAUGCC [G4A A121C]	1.72
UACAUAGGUGGUUUUCCCCUGAUAGUGCUAAGGGGGCCUGGAAGUUUGGACUGGGCAGAGCUCAACACAGCGUGGCAAAGUGGCUGUGGCUAGACUGCCUCUCUGGAUUCCUCGUCACUCUGCAGGGCAUCUCUGAGAGAAAUGCC [G4A A121U]	1.22
UACAUAGGUGGUUUUCCCCUGAUAGUGCUAAGGGGGCCUGGAAGUUUGGACUGGGCAGAGCUCAACACAGCGUGGCAAAGUGGCUGUGGCUAGUCUGCCUCUCUGGAUUCCUCGUCACUCAGCAGGGCAUCUCUGAGAGAAAUGCC [G4A A94U]	0.27
UACAUAGGUGGUUUUCCCCUGAUAGUGCUAAGGGGGCCUGGAAGUUUGGACUGGGCAGAGCUCAACACAGCGUGGCGAAGUGGCUGUGGCUAGACUGCCUCUCUGGAUUCCUCGUCACUCAGCAGGGCAUCUCUGAGAGAAAUGCC [G4A A77G]	1.68
UAUGUAGGUGGUUUUCCCCUGAUAGUGCUAAGGGGGCCUGGAAGUUUGGACUGGGCAGAGCUCAACACAGCGUGGCAAAGUGGCUGUGGCUAGACAGCCUCUCUGGAUUCCUCGUCACUCAGCAGGGCAUCUCUGAGAGAAAUGCC [C3U U96A]	0.07
UACAUAGGUGGUUUUCCCCUGAUAGUGCUAAGGGGGCCUGGAAGUUUGGACUGGGCAGAGCUCAGCACAGCGUGGCAAAGUGGCUGUGGCUAGACUGCCUCUCUGGAUUCCUCGUCACUCAGCAGGGCAUCUCUGAGAGAAAUGCC [G4A A65G]	0
UAUGUAGGUGGUUUUCCCCUGAUAGUGCUAAGGGGGCCUGGAAGUUUGGACUGGGCAGAGCUCAACACAGCGUGGCAAAGCGGCUGUGGCUAGACUGCCUCUCUGGAUUCCUCGUCACUCAGCAGGGCAUCUCUGAGAGAAAUGCC [C3U U81C]	0.79
UAUGUAGGUGGUUUUCCCCUGAUAGUGCUAAGGGGGCCUGGAAGUUUGGACUGGGCAGAGCUCAACACAGCGUGGCAAAGUGGCUGUGGCUAGACUGCCUCUCUGGAUACCUCGUCACUCAGCAGGGCAUCUCUGAGAGAAAUGCC [C3U U109A]	0.93
